Data set [1] addresses Mycobacterium tuberculosis proteasomal ATPase Mpa, full-length (1–609) (Mycobacterium tuberculosis) (UniProt P9WQN5). Nature of the data set: not stated; stoichiometry of the in vitro assembled Pup–FabD:Mpa complex; how it was found is not told.
The data set “cryo-EM structure” deals with the molecule itself. Put plainly: cryo-EM structure.

As to “Pup–FabD (Pup translationally fused to the N terminus of malonyl CoA-acyl carrier protein transacylase)”, the stoichiometry N (Pup–FabD per Mpa hexamer) in data set [1] was determined as 1.

B1: Mycobacterium tuberculosis proteasomal ATPase Mpa, full-length (1–609) (enzyme)
chain: MGESERSEAFGIPRDSPLSSGDAAELEQLRREAAVLREQLENAVGSHAPTRSARDIHQLEARIDSLAARNSKLMETLKEARQQLLALREEVDRLGQPPSGYGVLLATHDDDTVDVFTSGRKMRLTCSPNIDAASLKKGQTVRLNEALTVVEAGTFEAVGEISTLREILADGHRALVVGHADEERVVWLADPLIAEDLPDGLPEALNDDTRPRKLRPGDSLLVDTKAGYAFERIPKAEVEDLVLEEVPDVSYADIGGLSRQIEQIRDAVELPFLHKELYREYSLRPPKGVLLYGPPGCGKTLIAKAVANSLAKKMAEVRGDDAHEAKSYFLNIKGPELLNKFVGETERHIRLIFQRAREKASEGTPVIVFFDEMDSIFRTRGTGVSSDVETTVVPQLLSEIDGVEGLENVIVIGASNREDMIDPAILRPGRLDVKIKIERPDAEAAQDIYSKYLTEFLPVHADDLAEFDGDRSACIKAMIEKVVDRMYAEIDDNRFLEVTYANGDKEVMYFKDFNSGAMIQNVVDRAKKNAIKSVLETGQPGLRIQHLLDSIVDEFAENEDLPNTTNPDDWARISGKKGERIVYIRTLVTGKSSSASRAIDTESNLGQYL
notes: Mpa (mycobacterial proteasome ATPase), Mycobacterium tuberculosis, full-length, residues 1-609; Homohexamer; In the cryo-EM model the coiled-coil domains and two of the six AAA domains are not resolved; also called mycobacterial proteasome ATPase; WT Mpa
For the molecule B1, the stoichiometry N (in general, the number of molecules, sites or subunits per partner or assembly) in “cryo-EM structure” came to 6.

These data come from article PMC8142254, “The mycobacterial proteasomal ATPase Mpa forms a gapped ring to engage the 20S proteasome” (The Journal of Biological Chemistry, 2021).
